In US20260116921A1, “PEPTIDE INHIBITORS OF INTERLEUKIN-23 RECEPTOR AND THEIR USE TO TREAT INFLAMMATORY DISEASES” (priority 2018, published 2026):
Bridge positions count the residues as written; N and C are the ends. Square brackets hold non-standard residues; d marks the D form. Trp(7-Me) = Cc1cccc2c(C[C@H](N)C(=O)O)c[nH]c12; 2Nal = N[C@@H](Cc1ccc2ccccc2c1)C(=O)O; AEF = NCCOc1ccc(C[C@H](N)C(=O)O)cc1; Cit = NC(=O)NCCC[C@H](N)C(=O)O; αMeL = CC(C)C[C@](C)(N)C(=O)O; Pen = CC(C)(S)[C@H](N)C(=O)O; αMeK = C[C@](N)(CCCCN)C(=O)O; Aib = CC(C)(N)C(=O)O; βAla = NCCC(=O)O

T1: IL-23R (human, UniProt Q5VWK5 24-629)
T1 sequence (looked up): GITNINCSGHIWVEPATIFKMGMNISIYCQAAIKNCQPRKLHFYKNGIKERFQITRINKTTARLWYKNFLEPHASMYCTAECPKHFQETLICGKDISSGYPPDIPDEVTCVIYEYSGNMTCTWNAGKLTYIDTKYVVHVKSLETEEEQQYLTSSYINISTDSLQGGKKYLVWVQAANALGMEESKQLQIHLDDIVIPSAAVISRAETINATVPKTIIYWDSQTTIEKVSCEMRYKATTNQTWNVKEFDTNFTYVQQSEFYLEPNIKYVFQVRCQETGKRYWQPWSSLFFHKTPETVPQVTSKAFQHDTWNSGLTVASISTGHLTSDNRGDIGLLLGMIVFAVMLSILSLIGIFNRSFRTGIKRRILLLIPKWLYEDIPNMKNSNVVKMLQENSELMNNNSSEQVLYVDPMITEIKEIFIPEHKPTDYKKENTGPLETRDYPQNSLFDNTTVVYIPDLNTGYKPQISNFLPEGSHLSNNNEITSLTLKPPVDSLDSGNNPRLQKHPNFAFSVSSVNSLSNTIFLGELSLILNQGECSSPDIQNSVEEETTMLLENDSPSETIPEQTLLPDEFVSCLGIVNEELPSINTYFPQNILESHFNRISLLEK


What was measured:
IL-23R [1] = biological target: T1, IL-23R; experiment: cell-based or functional assay
IL-23R [2] = biological target: T1, IL-23R; experiment: cell-based or functional assay; remark: listed apart in the source

| Binder | pStat3 HTRF (nM) IC50 (IL-23R [1]) | NK Cell Assay (nM) IC50 (IL-23R [2]) |
| --- | --- | --- |
| Ac-[Pen]NT[Trp(7-Me)][Cit][Pen][AEF][2Nal][αMeL]K(Ac)N[βAla]-NH2 (disulfide 1-6) [SEQ ID NO: 227] | < 1 nM | < 10 nM |
| XNTXQXXXXKNX (Ac-[Pen]-NT-[W(7-Me)]-Q-[Pen]-Phe[4-(2-aminoethoxy)]-[2-Nal]-[a-MeLeu]-[Lys(Ac)]-N-[bA]-NH2; Pen-Pen disulfide) [SEQ ID NO: 201] | < 1 nM | < 10 nM |
| XKTXQXXXXKNX (Ac-[Pen]-[Lys(Ac)]-T-[W(7-Me)]-Q-[Pen]-Phe[4-(2-aminoethoxy)]-[2-Nal]-[a-MeLys]-[Lys(Ac)]-N-[bA]-NH2; Pen-Pen disulfide) [SEQ ID NO: 239] |  | < 10 nM |
| XNTXKXXXXKNX (Ac-[Pen]-NT-[W(7-Me)]-[Lys(Ac)]-[Pen]-Phe[4-(2-aminoethoxy)]-[2-Nal]-[a-MeLys]-[Lys(Ac)]-N-[bA]-NH2; Pen-Pen disulfide) [SEQ ID NO: 242] | < 1 nM | < 10 nM |
| XNTXQXXXXKXX (Ac-[Pen]-NT-[W(7-Me)]-Q-[Pen]-Phe[4-(2-aminoethoxy)]-[2-Nal]-[a-MeLeu]-[Lys(Ac)]-[Sarc]-[bA]-NH2; Pen-Pen disulfide) [SEQ ID NO: 224] | > 100 nM |  |
| XNTXQXXXXKXX (Ac-[Pen]-NT-[W(7-Me)]-Q-[Pen]-Phe[4-(2-aminoethoxy)]-[2-Nal]-[a-MeLeu]-[Lys(Ac)]-[bA]-[bA]-NH2; Pen-Pen disulfide) [SEQ ID NO: 226] |  | < 10 nM |
| XNTXQXXXXKPX (Ac-[Pen]-NT-[W(7-Me)]-Q-[Pen]-Phe[4-(2-aminoethoxy)]-[2-Nal]-[a-MeLeu]-[Lys(Ac)]-P-[bA]-NH2; Pen-Pen disulfide) [SEQ ID NO: 211] | > 100 nM |  |
| RXQTXQCXXXENX (Ac-[(D)Arg]-Abu-Q-T-[W(7-Me)]-Q-C-Phe[4-(2-aminoethoxy)]-[2-Nal]-[THP]-E-N-[bA]-NH2; Abu-Cys thioether) [SEQ ID NO: 203] |  | < 10 nM |
| Ac-[Pen][Cit]T[Trp(7-Me)]Q[Pen][AEF][2Nal][αMeK]K(Ac)N[βAla]-NH2 (disulfide 1-6; SMILES CC(=O)NCCCC[C@H](NC(=O)[C@](C)(CCCCN)NC(=O)[C@H](Cc1ccc2ccccc2c1)NC(=O)[C@H](Cc1ccc(OCCN)cc1)NC(=O)[C@H]1NC(=O)[C@H](CCC(N)=O)NC(=O)[C@H](Cc2c[nH]c3c(C)cccc23)NC(=O)[C@H]([C@@H](C)O)NC(=O)[C@H](CCCNC(N)=O)NC(=O)[C@@H](NC(C)=O)C(C)(C)SSC1(C)C)C(=O)N[C@@H](CC(N)=O)C(=O)NCCC(N)=O) [SEQ ID NO: 238] |  | < 10 nM |
| XNTXKXXXXKNL (Ac-[Pen]-NT-[W(7-Me)]-[Lys(Ac)]-[Pen]-Phe[4-(2-aminoethoxy)]-[2-Nal]-[a-MeLys]-[Lys(Ac)]-N-[(D)Leu]-NH2; Pen-Pen disulfide) [SEQ ID NO: 245] | < 1 nM | < 10 nM |
| XNTXQXXXXKNX (Ac-[Pen]-NT-[W(7-Me)]-Q-[Pen]-Phe[4-(2-aminoethoxy)]-[2-Nal]-[a-MeLys]-[Lys(Ac)]-N-[bA]-NH2; Pen-Pen disulfide) [SEQ ID NO: 202] |  | < 10 nM |

Now from value to binder:

| pStat3 HTRF (nM) IC50 (IL-23R [1]) | NK Cell Assay (nM) IC50 (IL-23R [2]) | Binder |
| --- | --- | --- |
| < 1 nM | < 10 nM | XNTXQXXXXKNX (Ac-[Pen]-N-T-[W(7-Me)]-Q-[Pen]-Phe[4-(2-aminoethoxy)]-[2-Nal]-[a-MeOrn]-[Lys(Ac)]-N-[bA]-NH2; Pen-Pen disulfide) [SEQ ID NO: 278] |
| < 1 nM |  | Ac-[Pen]NT[Trp(7-Me)][Cit][Pen][AEF][2Nal][αMeK]K(Ac)N[Aib][dY]-NH2 (disulfide 1-6; SMILES CC(=O)NCCCC[C@H](NC(=O)[C@](C)(CCCCN)NC(=O)[C@H](Cc1ccc2ccccc2c1)NC(=O)[C@H](Cc1ccc(OCCN)cc1)NC(=O)[C@H]1NC(=O)[C@H](CCCNC(N)=O)NC(=O)[C@H](Cc2c[nH]c3c(C)cccc23)NC(=O)[C@H]([C@@H](C)O)NC(=O)[C@H](CC(N)=O)NC(=O)[C@@H](NC(C)=O)C(C)(C)SSC1(C)C)C(=O)N[C@@H](CC(N)=O)C(=O)NC(C)(C)C(=O)N[C@H](Cc1ccc(O)cc1)C(N)=O) [SEQ ID NO: 347] |
| < 1 nM | < 10 nM | Ac-[Pen]NT[Trp(7-Me)][Cit][Pen][AEF][2Nal][αMeK]K(Ac)N[dS]-NH2 (disulfide 1-6 (inferred)) [SEQ ID NO: 261] |
| < 1 nM |  | Ac-[Pen]NT[Trp(7-Me)][Cit][Pen][AEF][2Nal][αMeK]K(Ac)N[Aib][dK]-NH2 (disulfide 1-6; SMILES CC(=O)NCCCC[C@H](NC(=O)[C@](C)(CCCCN)NC(=O)[C@H](Cc1ccc2ccccc2c1)NC(=O)[C@H](Cc1ccc(OCCN)cc1)NC(=O)[C@H]1NC(=O)[C@H](CCCNC(N)=O)NC(=O)[C@H](Cc2c[nH]c3c(C)cccc23)NC(=O)[C@H]([C@@H](C)O)NC(=O)[C@H](CC(N)=O)NC(=O)[C@@H](NC(C)=O)C(C)(C)SSC1(C)C)C(=O)N[C@@H](CC(N)=O)C(=O)NC(C)(C)C(=O)N[C@H](CCCCN)C(N)=O) [SEQ ID NO: 344] |
| < 1 nM | < 10 nM | XNTXKXXXXKNK (Ac-[Pen]-NT-[W(7-Me)]-[Lys(Ac)]-[Pen]-Phe[4-(2-aminoethoxy)]-[2-Nal]-[a-MeLys]-[Lys(Ac)]-N-[(D)Lys]-NH2; Pen-Pen disulfide) [SEQ ID NO: 252] |
| < 1 nM | < 10 nM | XNTXKXXXXKNF (Ac-[Pen]-NT-[W(7-Me)]-[Lys(Ac)]-[Pen]-Phe[4-(2-aminoethoxy)]-[2-Nal]-[a-MeLys]-[Lys(Ac)]-N-[(D)Phe]-NH2; Pen-Pen disulfide) [SEQ ID NO: 258] |
|  | < 10 nM | XNTXKXXXXKHX (Ac-[Pen]-N-T-[W(7-Me)]-[Lys(Ac)]-[Pen]-Phe[4-(2-aminoethoxy)]-[2-Nal]-[a-MeLys]-[Lys(Ac)]-H-[bA]-NH2; Pen-Pen disulfide) [SEQ ID NO: 272] |
| < 1 nM | < 10 nM | Ac-[Pen]NT[Trp(7-Me)][Cit][Pen][AEF][2Nal][αMeK]K(Ac)N[Aib]-NH2 (disulfide 1-6 (inferred)) [SEQ ID NO: 264] |
